From PMC7575552

Molecular target: Hsp70 (385–641) (UniProt P0DMV8)
Experiment: ITC; TA Instruments NanoITC, 25 °C, stir speed 600 rpm; 350 µM WT or S20E CHIP titrated into 50 µM Hsp70 (385–641), twenty-four 2 µL injections; triplicate

UniProt P0DMV8, sequence (P0DMV8 385-641): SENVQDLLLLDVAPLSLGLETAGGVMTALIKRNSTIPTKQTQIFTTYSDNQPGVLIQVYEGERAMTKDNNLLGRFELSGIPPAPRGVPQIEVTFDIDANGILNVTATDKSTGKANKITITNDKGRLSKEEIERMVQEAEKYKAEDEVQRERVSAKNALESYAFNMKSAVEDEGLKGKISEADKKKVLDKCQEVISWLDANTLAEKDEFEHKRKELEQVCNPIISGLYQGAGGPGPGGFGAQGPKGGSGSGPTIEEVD

dH [kcal/mol] | Substance
-6.31 | Recombinant human CHIP wild type (from UniProt Q9UNE7 1-303) (natural protein)
-7.67 | Recombinant human CHIP S20E (phosphomimetic) (from UniProt Q9UNE7 1-303) (natural protein)
